Laboratory results published in patent US20080249043.

Assays:
[1] = molecular target: first 50-aa fragment of PLS3, His-tagged (UniProt Q9NRY6)
[2] = molecular target: His-tagged PLS3 (wild-type phospholipid scramblase 3) (UniProt Q9NRY6)
[3] = molecular target: His-tagged PLS3(T21A) (UniProt Q9NRY6)
Sequence of His-tagged PLS3(T21A) (Q9NRY6 other isoform, or with tags, fused parts or gaps T21A): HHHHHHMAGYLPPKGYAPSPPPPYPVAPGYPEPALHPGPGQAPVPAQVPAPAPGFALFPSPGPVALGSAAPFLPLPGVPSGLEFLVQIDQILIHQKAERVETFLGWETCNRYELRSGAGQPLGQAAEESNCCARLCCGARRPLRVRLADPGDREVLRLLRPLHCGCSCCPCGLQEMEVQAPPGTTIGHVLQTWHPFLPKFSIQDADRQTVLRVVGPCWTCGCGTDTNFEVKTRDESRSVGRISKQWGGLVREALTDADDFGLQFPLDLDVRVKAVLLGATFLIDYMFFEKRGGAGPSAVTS

Recombinant human PKC-δ enzyme (Calbiochem)
in vitro phosphorylation with [γ-32P]ATP, autoradiography [1]: Phosphorylation was seen in both full-length PLS3 and its N-terminal fragment of PLS3
in vitro phosphorylation with [γ-32P]ATP, autoradiography [2]: Phosphorylation was seen in both full-length PLS3 and its N-terminal fragment of PLS3
in vitro phosphorylation with [γ-32P]ATP, autoradiography [3]: mutation at Thr21 nearly eliminated PLS3 phosphorylation by PKC-δ
